Test results as given in patent US20240325562A1, “INTERNALIZING BINDING MOLECULES” (LinXis B.V., priority 2020, published 2024).
Blank lines part the entries; values can stand above or below the molecule they belong to.

Assays:
PDGFRB = target: T1, PDGFRB (Rattus norvegicus, UniProt Q05030); test: Staining of rat tissue cryo-sections for PDGFRB; settings: 50 nM, overnight 4° C.
T1 construct: from tissue; host or cells: cryo-sections of rat tissues (liver, kidney, spleen, heart, ileum, brain) of BDL and SHAM rats
T1 sequence (Q05030 32-1097): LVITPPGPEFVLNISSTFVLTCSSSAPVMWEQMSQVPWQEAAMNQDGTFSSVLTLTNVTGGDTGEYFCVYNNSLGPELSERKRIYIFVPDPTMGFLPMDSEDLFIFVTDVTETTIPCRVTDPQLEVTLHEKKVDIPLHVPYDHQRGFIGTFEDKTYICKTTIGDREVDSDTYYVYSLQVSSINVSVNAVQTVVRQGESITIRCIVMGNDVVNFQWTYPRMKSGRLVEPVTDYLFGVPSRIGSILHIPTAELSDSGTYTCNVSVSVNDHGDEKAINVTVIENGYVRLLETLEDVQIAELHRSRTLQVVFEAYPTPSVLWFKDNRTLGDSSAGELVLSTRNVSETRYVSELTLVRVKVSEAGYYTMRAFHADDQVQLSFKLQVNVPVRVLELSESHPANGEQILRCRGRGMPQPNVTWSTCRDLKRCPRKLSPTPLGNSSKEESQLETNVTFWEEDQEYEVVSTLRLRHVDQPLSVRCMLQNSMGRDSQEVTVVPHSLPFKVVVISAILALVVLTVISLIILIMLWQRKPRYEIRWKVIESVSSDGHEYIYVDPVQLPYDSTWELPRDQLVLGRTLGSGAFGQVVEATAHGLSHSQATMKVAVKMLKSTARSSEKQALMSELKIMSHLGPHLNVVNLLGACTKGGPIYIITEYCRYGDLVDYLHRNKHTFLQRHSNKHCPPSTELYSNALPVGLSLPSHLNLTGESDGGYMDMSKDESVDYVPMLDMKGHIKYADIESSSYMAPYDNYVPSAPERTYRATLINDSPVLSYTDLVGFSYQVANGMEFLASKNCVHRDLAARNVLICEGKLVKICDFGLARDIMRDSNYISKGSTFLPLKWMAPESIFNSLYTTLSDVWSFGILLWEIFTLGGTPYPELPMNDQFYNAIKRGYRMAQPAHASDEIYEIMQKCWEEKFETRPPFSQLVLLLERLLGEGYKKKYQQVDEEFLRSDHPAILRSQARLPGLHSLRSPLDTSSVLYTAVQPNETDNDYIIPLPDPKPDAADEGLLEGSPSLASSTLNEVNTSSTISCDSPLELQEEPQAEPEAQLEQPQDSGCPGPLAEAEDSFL
Experimental: To evaluate whether SP02-SP26-ABD bound to PDGFRB as (over-) expressed in the cirrhotic liver, various cryo-sections of tissues (liver, kidney, spleen, heart, ileum, brain) obtained from both healthy (SHAM) and cirrhotic (BDL) rats (preparation procedure as outlined in example 15) were stained with SP02-SP26-ABD conjugated to Alexa Fluor 647 (SP02-SP26-ABD-A647, conjugation method as described in example 10.2.). Staining was performed with 50 nM SP02-SP26-ABD-AF647 during overnight incubation at 4° C. Subsequently, the sections were washed and stained with DAPI, mounted with mowiol mounting medium (Merck), and imaged on a Zeiss LSM700 laser scanning confocal microscope with a 20× objective. […] In the tissues other than the liver, no upregulation of PDGFRB was observed.

hIGF2R-ECD = target: T2, hIGF2R-ECD (Homo sapiens, UniProt P11717); test: Competition assay with 13F11-A647 as reporter VHH on immobilized hIGF2R-ECD; type: binding; settings: 10 nM 13F11-A647, 250 nM unconjugated competitor VHH
T2 construct: immobilized recombinant human extracellular domain of IGF2R (hIGF2R-ECD) was used
Experimental: With the term “compete” is meant that in a competition assay, such as for instance described in Example 6 of the present invention, the addition of a binding molecule induces a significant decrease in binding of a given VHH, i.e., the VHH to which the competing is determined. “Significant” in this respect is preferably a decrease of >5%, preferably >10% when 250 nM of a binding molecule is added to 10 nM of a fluorescence labelled VHH in an ELISA. […] The same test conditions and threshold apply to a binding molecule directed to PDGFRB when determining whether a binding molecule competes with a given VHH.
Biparatopic VHH constructs contain two VHH which bind to a different epitope, i.e. which are non-competitive binders. To identify (a) pair(s) of non-competitive binders, competition assays were performed. In the example shown, an Alexa fluor-conjugate of the high affine VHH 13F11 was used as the reporter VHH (13F11-A647, see example 10.2). In the assay, a non-saturating amount (10 nM) of 13F11-A647 was incubated with immobilized hIGF2R-ECD in the presence or absence of 250 nM unconjugated competitor VHH to allow competition to take place.

[1] = tested on: A549 cells that endogenously express hIGF2R; test: Internalization by fluorescence microscopy after acid wash, A549 cells; type: cell-based, human; settings: 25 nM Alexa fluor 647 conjugate
Experimental: (§1) First, Alexa fluor 647-conjugates of the VHH 13F11 and the biparatopic VHH construct […] were added to A549 cells that endogenously express hIGF2R (FIG. 16A), NIH 3T3 2.2 cells that were transiently transfected with hIGF2R (FIG. 16B), or mock transfected NIH 3T3 2.2 cells (as a negative control). For this, the cells were incubated with 25 nM of the VHH or the VHH construct. Before fluorescent microscopy readout, to ensure that only signal of internalized VHH or mouse anti-IGF2R was present, an acid wash (0.2M glycine-HCl, 150 mM NaCl, pH 2.3) was used to remove VHH or mouse anti-IGF2R bound to the target receptors on the cell surface. The efficiency of the acid wash procedure was verified by incubating the hIGF2R transfected NIH 3T3 2.2 cells with 13F11-13E8-A647 on ice and subsequently treating these cells with an acid wash while remaining on ice to prevent internalization (FIG. 16D). […] Summarizing, biparatopic 13F11-13E8 clearly internalizes in cells expressing hIGF2R on the cell surface.

[2] = tested on: NIH 3T3 2.2 cells that were transiently transfected with hIGF2R; test: Internalization by fluorescence microscopy after acid wash, hIGF2R-transfected NIH 3T3 2.2 cells; type: cell-based, human; settings: 25 nM Alexa fluor 647 conjugate
Experimental: as §1

[3] = tested on: mock transfected NIH 3T3 2.2 cells; test: Internalization by fluorescence microscopy after acid wash, mock transfected cells; type: cell-based; settings: 25 nM Alexa fluor 647 conjugate, negative control cells
Experimental: as §1

IGF2R [4] = target: T3, IGF2R (Rattus norvegicus, UniProt G3V824); test: Staining of rat tissue cryo-sections for IGF2R; settings: 50 nM, overnight 4° C.
T3 construct: from tissue; host or cells: cryo-sections of rat tissues (liver, kidney, spleen, heart, ileum, brain); Sprague-Dawley BDL and SHAM rats
T3 sequence (G3V824 36-2481): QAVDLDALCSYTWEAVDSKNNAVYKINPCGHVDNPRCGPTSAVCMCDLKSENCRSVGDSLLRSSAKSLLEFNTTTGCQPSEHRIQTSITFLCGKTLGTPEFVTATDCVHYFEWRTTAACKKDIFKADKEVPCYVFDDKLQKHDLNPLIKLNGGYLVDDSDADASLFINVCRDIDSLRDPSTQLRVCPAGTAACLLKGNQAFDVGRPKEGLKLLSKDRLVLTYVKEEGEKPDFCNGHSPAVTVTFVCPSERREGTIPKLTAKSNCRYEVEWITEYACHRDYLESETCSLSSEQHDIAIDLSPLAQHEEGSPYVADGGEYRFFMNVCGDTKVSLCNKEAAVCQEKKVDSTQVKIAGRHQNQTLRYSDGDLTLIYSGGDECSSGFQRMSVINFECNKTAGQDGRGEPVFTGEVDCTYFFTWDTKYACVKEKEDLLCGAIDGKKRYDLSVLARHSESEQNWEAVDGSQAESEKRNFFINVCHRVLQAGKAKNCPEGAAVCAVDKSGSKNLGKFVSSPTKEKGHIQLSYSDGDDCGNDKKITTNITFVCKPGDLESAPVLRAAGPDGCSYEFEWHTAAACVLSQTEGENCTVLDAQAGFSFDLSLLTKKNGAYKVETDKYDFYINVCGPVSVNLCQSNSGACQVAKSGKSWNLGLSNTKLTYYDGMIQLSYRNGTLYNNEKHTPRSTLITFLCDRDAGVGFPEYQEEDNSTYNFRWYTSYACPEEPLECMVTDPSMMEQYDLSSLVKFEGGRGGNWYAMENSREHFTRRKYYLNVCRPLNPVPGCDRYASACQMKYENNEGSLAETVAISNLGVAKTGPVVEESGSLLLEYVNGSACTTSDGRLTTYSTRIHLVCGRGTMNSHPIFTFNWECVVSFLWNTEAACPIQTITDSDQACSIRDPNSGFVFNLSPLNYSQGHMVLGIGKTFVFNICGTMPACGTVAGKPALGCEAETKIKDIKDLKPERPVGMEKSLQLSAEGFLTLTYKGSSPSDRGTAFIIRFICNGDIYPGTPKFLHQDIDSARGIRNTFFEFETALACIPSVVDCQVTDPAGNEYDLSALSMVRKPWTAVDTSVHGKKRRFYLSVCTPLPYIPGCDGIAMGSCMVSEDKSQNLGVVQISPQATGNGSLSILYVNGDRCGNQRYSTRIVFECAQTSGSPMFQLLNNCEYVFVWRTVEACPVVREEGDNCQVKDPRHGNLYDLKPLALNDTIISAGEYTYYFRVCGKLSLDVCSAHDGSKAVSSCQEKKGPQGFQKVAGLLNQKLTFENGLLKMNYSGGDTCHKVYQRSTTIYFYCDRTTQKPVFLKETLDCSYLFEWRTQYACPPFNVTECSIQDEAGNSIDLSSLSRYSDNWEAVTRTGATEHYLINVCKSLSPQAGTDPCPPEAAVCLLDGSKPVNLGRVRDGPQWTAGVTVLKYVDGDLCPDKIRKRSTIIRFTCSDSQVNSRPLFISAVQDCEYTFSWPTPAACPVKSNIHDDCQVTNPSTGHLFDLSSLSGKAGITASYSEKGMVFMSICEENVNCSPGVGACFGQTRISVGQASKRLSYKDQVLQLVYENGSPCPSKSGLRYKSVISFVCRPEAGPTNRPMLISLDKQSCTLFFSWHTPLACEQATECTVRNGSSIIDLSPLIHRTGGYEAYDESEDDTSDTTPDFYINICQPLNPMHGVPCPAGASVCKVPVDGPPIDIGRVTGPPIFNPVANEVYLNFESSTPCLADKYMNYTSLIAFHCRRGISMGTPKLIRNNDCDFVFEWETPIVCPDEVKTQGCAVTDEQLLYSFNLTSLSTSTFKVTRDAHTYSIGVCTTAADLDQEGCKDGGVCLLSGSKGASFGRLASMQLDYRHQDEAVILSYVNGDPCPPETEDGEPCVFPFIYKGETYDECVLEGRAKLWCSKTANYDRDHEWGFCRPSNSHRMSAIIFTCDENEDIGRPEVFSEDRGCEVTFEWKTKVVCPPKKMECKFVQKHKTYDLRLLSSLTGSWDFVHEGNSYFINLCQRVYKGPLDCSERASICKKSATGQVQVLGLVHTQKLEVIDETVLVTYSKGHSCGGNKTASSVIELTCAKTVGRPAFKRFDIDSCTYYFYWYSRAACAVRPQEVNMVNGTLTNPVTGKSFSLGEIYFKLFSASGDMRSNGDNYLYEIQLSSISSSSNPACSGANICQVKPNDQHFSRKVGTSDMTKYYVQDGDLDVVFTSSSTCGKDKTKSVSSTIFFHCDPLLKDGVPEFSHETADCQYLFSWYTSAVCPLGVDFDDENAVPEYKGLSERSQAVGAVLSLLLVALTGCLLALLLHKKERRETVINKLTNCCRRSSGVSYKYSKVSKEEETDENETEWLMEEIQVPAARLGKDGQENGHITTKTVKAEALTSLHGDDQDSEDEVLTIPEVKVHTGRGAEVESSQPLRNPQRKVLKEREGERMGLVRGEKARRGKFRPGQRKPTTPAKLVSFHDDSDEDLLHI
Experimental: To evaluate whether F11E8-ABD bound to IGF2R as (over-) expressed in the cirrhotic liver, various cryo-sections of tissues (liver, kidney, spleen, heart, ileum, brain) obtained from both healthy (SHAM) and cirrhotic (BDL) rats (preparation procedure as outlined in example 15) were stained with 13F11-13E8-ABD conjugated to Alexa Fluor 647 (13F11-13E8-ABD-A647, conjugation method as described in example 10.2.). Staining was performed with 50 nM 13F11-13E8-ABD-AF647 during overnight incubation at 4° C. Subsequently, the sections were washed and stained with DAPI, mounted with mowiol mounting medium (Merck) and imaged on a Zeiss LSM700 laser scanning confocal microscope with a 20× objective. […] In the tissues other than the liver, no upregulation of IGF2R was observed.

[5] = tested on: BDL rats (portal hypertension); test: Portal pressure and mean arterial pressure in BDL and SHAM rats; type: in vivo, Sprague-Dawley rats; settings: 5 mg/kg i.v.
Excerpt: To evaluate in vivo functionality, 13F11-13E8-ABD was conjugated to a Y27632-maleimide modified functional moiety (1e) (the test conjugate) as outlined in example 10.2. To provide a comparator, a similar amount of 13F11-13E8-ABD was conjugated to N-ethylmaleimide in a parallel and similar preparation (the mock conjugate).
To establish animals displaying portal hypertension (Klein et al, Fibrosis: Methods and Protocols. Methods in Molecular Biology. 2017 (1627): 91-122.), Sprague-Dawley rats were subjected to bile duct ligation (BDL) through median laparotomy under ketamine/xylazine-induced anaesthesia i.p. (BDL rats). To provide healthy controls, a second cohort of rats was subjected to the same surgical procedure except for actual ligation of the bile duct (SHAM rats). Surgery was followed-up with pain control medication (carprofen s.c.). Approximately five weeks after surgery, ketamine/xylazine anesthetized rats were subjected to median laparotomy, after which one catheter was inserted through an ileocecal vein to the portal vein, and one catheter was inserted into the femoral artery. The catheters were connected to pressure recording equipment, for assessment of portal pressure and mean arterial pressure, respectively.
(§2) After catheterization and hemodynamic stabilization, rats were dosed with 5 mg/kg test conjugate or mock conjugate i.v. through the lateral tail vein and pressures were monitored continuously (example 15.1.). One hour after dosing, animals were sacrificed after which tissues were isolated for ex vivo analysis (example 15.2.).

IGF2R [6] = target: T3, IGF2R; test: In situ detection of infused test conjugate in liver sections; type: in vivo; settings: for detection of conjugate in liver: one hour after 5 mg/kg i.v., anti-VHH antiserum
Experimental: as §2
After isolation, livers obtained from test conjugate-infused BDL and SHAM rats were fixated with paraformaldehyde, soaked in 30% (w/v) sucrose in PBS, and sectioned using cryo-microtome.
To detect the test conjugate in situ, tissue sections were stained with a rabbit polyclonal anti-VHH antiserum recognizing the 13F11-13E8 moiety of the conjugate, followed by an anti-rabbit antibody conjugated to the fluorophore Alexa-488 for visualization by confocal fluorescence microscopy (cf. example 14).

[7] = BDL rats, monitored for one hour

staining of cirrhotic (BDL) rat liver (PDGFRB): strongly stains activated fibroblasts
staining of normal (SHAM) rat liver (PDGFRB): only background signal was detected
B1: SP02-SP26-ABD-AF647: SP02-SP26-ABD conjugated to Alexa Fluor 647 (conjugate)
chain: EVQLVESGGGLVQAGGSLRLSCAASESISSIEQMGWFRQAPGKQRALVAINTYGGRTVYTNSVEGRFTMSRDSAKNMVYLQMTSLEPEDTAVYYCYAQTTAWRGGVWGQGTQVTVSSGGGGSGGGGSGGGGSEVQLVESGGGLVQAGGSLRLSCAASGRSFSSSVMGWFRQTPGKEREFVAATRWTAASTHYADSVKGRFTISRDHAENAVFLQMNSLKPEDTAVYYCAAGNYLDTAQYRYNYWGQGTQVTVSS
modifications: left off: large carriers; small tags and cut ends

competition with reporter VHH 13F11-A647 (hIGF2R-ECD): competed with 13F11-A647
B2: 13F11: VHH single domain antibody targeting IGF2R, SEQ ID NO: 273 (protein)
VHH: EVQLVESGGRLVQPGDSLRLSCAASGRTFSDNAMGWFRQAPGKERRFVAGISWAGGSTYYSDSVKGRFTISRDNAKNTVYLQMNSLKPEDTAVYYCAAGLRAWVQRMPKDYNYWGQGTQVTVSS
internalization [1]: no internalization was observed
internalization [2]: internalized
internalization [3]: no internalization was observed

staining of cirrhotic (BDL) rat liver (IGF2R [4]): strongly stains activated fibroblasts
staining of normal (SHAM) rat liver (IGF2R [4]): only background signal was detected
B3: 13F11-13E8-ABD-AF647: 13F11-13E8-ABD conjugated to Alexa Fluor 647 (conjugate)
chain: EVQLVESGGRLVQPGDSLRLSCAASGRTFSDNAMGWFRQAPGKERRFVAGISWAGGSTYYSDSVKGRFTISRDNAKNTVYLQMNSLKPEDTAVYYCAAGLRAWVQRMPKDYNYWGQGTQVTVSSGGGGSGGGGSGGGGSEVQLVESGGGLVQAGGSLRLSCAASRSISPMGWYRQAPGKQRELVAIMPSSGPPIYADSVQGRFTISRDNAKNTVYLQMNSLKPEDTAVYYCNVGGGYWGQGTQVTVSS
modifications: left off: large carriers; small tags and cut ends

B4: test conjugate: 13F11-13E8-ABD conjugated to a Y27632-maleimide modified functional moiety (1e) (conjugate)
chain: EVQLVESGGRLVQPGDSLRLSCAASGRTFSDNAMGWFRQAPGKERRFVAGISWAGGSTYYSDSVKGRFTISRDNAKNTVYLQMNSLKPEDTAVYYCAAGLRAWVQRMPKDYNYWGQGTQVTVSSGGGGSGGGGSGGGGSEVQLVESGGGLVQAGGSLRLSCAASRSISPMGWYRQAPGKQRELVAIMPSSGPPIYADSVQGRFTISRDNAKNTVYLQMNSLKPEDTAVYYCNVGGGYWGQGTQVTVSS
modifications: non-natural residues; left off: large carriers; small tags and cut ends
mean arterial pressure (MAP) [5, 7]: remained constant
portal pressure (PP) [5, 7]: gradual decrease of portal pressure
portal or arterial pressure ([5]; SHAM rats): neither the test conjugate nor the mock conjugate affected portal or arterial pressure
detection of conjugate in liver (IGF2R [6]; BDL rats): detected in the liver of BDL rats
distribution in liver versus (tissue) distribution of IGF2R (IGF2R [6]; BDL rats, second staining with 13F11-13E8-A647): overlapped
detection of conjugate in liver (IGF2R [6]; SHAM rats): not in the liver of SHAM rats
